We go through five molecules from patent US20210347821A1 (published 2021).

Assay [1] has as its target T1, Protein Interacting with C Kinase-1 (PICK1), purified recombinant (UniProt Q9EP80 1-416).
T1 construct: also called purified PICK1
Briefly: fluorescence polarization competition, tracer 5-FAM-TAT-C5. In general terms: In fluorescence polarisation assays a small probe gives low polarisation when free and higher when bound to something large.

The target of assay [2] is T2, GFP-PICK1 A87L (UniProt Q9EP80 1-416).
T2 construct: also called PDZ deficient mutant GFP-PICK1 A87L; not shown: GFP tag
Briefly: colocalization in heterologous cells.

For assay [3], the target named is T2, GFP-PICK1 A87L. Briefly: pull-down from HEK293 cells.
Assay [4] deals with T3, PICK1 (endogenous, mouse spinal cord) (mouse, UniProt Q62083 1-416).
T3 construct: also called PICK1 protein
Briefly: pull-down from mouse spinal cord after intrathecal administration.

Assay [5] has as its target T1, Protein Interacting with C Kinase-1 …. Briefly: fluorescence polarization competition, tracer 5FAM-TAT-(C5).

Where no end group is shown, it is not given here. The star is where a group is joined. NPEG4 = 4-unit NPEG linker joining two HWLKV peptides through their N-termini, carries the CPP on its nitrogen; Biotin = O=C1N[C@H]2[C@H](CS[C@H]2CCCCC(=O)*)N1

T1 sequence (Q9EP80 whole entry): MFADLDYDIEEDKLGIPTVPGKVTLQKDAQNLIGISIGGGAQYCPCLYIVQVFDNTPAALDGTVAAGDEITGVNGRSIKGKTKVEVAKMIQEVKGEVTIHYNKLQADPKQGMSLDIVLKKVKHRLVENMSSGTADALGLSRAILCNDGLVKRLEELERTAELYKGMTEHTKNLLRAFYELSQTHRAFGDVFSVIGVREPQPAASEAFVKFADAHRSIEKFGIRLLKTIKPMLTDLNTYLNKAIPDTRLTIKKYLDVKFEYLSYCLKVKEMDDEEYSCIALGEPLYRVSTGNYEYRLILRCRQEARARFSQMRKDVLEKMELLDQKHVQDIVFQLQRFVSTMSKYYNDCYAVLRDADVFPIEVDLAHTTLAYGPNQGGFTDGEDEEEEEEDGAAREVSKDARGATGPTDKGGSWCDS
T2 sequence (Q9EP80 whole entry A87L): as the sequence (Q9EP80 whole entry) above, with A87L counted along it
T3 sequence (Q62083 whole entry): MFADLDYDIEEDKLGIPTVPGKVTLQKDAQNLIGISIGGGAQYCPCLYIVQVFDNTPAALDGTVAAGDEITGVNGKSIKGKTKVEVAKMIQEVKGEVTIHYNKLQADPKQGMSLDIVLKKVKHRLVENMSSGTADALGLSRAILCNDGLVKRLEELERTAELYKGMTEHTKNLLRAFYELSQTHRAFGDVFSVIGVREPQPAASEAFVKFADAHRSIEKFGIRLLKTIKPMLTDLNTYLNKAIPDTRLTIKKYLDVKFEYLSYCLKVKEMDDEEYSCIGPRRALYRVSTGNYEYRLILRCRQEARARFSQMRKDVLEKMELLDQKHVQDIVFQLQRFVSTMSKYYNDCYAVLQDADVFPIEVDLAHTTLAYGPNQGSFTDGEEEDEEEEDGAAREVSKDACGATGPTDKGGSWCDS

B1: PNT-P4-(C5)2 (peptide)
peptide 1: RQIKIWFQNRRMKWKK
peptide 2: HWLKV
modifications: not fully specified
notes: Branched compound as TAT-P4-(C5)2, with Penetratin as CPP; also called Pent-P4-(C5)2; PNT-peptide
Regarding B1, the “Fold affinity change (against TAT-P4-(C5)2)” value (shortened to “Fold affinity change”) in assay [1] was determined as 1.7 fold.

B2: TAMRA-YGRKKRRQRRR-PEG4-(HWLKV)2 (peptide)
peptide 1: YGRKKRRQRRR
peptide 2: HWLKV
modifications: not fully specified; N-terminus linked to the NPEG4 linker that joins the two copies; TAMRA on the N-terminus of the TAT sequence; conjugated to the NPEG4 linker
notes: also called TMR-TAT-P4-(C5)2; TMR-TAT11-P4-(C5)2
Take B2: in the assay with GFP-PICK1 A87L [2], the binding result is “no binding”.

B3: N-terminally biotinylated TAT-P4-(C5)2 (peptide)
peptide 1: Biotin-YGRKKRRQRRR
peptide 2: HWLKV
modifications: not fully specified
notes: also called Biotin-TAT-P4-(C5)2
Take B3: the binding result was “no binding” with GFP-PICK1 A87L [3] and “binds” in assay [4].

B4: MAP-P4-(C5)2 (peptide)
peptide 1: KLALKLALKALKAALKLA
peptide 2: HWLKV
modifications: not fully specified
notes: also called MAP-NPEG4-(HWLKV)2; MAP-peptide
For orientation: Ki means the dissociation constant of the complex between target and ligand, obtained from inhibition or displacement. In the case of B4, in assay [1], the “Fold affinity change” value was determined as 0.8 fold and the Ki stood at 5.1 nM.

B5: TAT11-PEG4-(DATC5)2 (peptide)
peptide 1: YGRKKRRQRRR
peptide 2: NPEG4-HWLKV
modifications: not fully specified (C-terminus)
notes: Branched compound: two HWLKV peptides joined through their N-termini by a 4-unit NPEG linker that carries the CPP; also called TAT-P4-(C5)2
With B5, the “fold shift in affinity” value in assay [5] stood at 301 fold. In assay [1], the “Fold affinity change” value came out at 1 fold and the Ki came to 4 nM.
